# From FireProtDB (doi:10.1016/j.bbapap.2007.05.016)
# Where “and” joins values, the source holds several entries; their conditions need not be identical. Equal entries are not always repeated.
# B1: Chitosanase, P33665 (parent)
# chain: MHSQHRTARIALAVVLTAIPASLATAGVGYASTQASTAVKAGAGLDDPHKKEIAMELVSSAENSSLDWKAQYKYIEDIGDGRGYTGGIIGFCSGTGDMLELVQHYTDLEPGNILAKYLPALKKVNGSASHSGLGTPFTKDWATAAKDTVFQQAQNDERDRVYFDPAVSQAKADGLRALGQFAYYDAIVMHGPGNDPTSFGGIRKTAMKKARTPAQGGDETTYLNAFLDARKAAMLTEAAHDDTSRVDTEQRVFLKAGNLDLNPPLKWKTYGDPYVINS
# Variants of: B1
# Settings: Streptomyces sp. (strain N174), pH 4.5, Thermal, Fluorescence, reversible: No, structure 1CHK, whole UniProt chain shown
variant,measurement,setting,value
MHSQHRTARIALAVVLTAIPASLATAGVGYASTQASTAVKAGAGLDDPHKKEIAMELVSSAENSSLDWKAQYKYIEDIGDGRGYTGGIIGFCSGTGDMLELVQHYTDLEPGNILAKYLPALKKVNGSASHSGLGTPFTKDWATLAKDTVFQQAQNDERDRVYFDPAVSQAKADGLRALGQFAYYDAIVMHGPGNDPTSFGGIRKTAMKKARTPAQGGDETTYLNAFLDARKAAMLTEAAHDDTSRVDTEQRVFLKAGNLDLNPPLKWKTYGDPYVINS [A144L],Tm,Sodium acetate 50 mM,48 °C
same,"change of melting temperature, mutant - wild type (higher = more stable)",Sodium acetate 50 mM,-5.5 °C
same,"change of melting temperature, mutant - wild type (higher = more stable)",Sodium acetate 100 mM,-5.3 °C and -6.2 °C and -7 °C
MHSQHRTARIALAVVLTAIPASLATAGVGYASTQASTAVKAGAGLDDPHKKEIAMELVSSAENSSLDWKAQYKYIEDIGDGRGYTGGIIGFCSGTGDMLELVQHYTDLEPGNILAKYLPALKKVNGSASHSGLGTPFTKDWATAAKDTVFQQAQNDERDRVYFDPAVSQAKADGLRALGQFAYYDAIVMHGPGNDPTSFGGIRRTAMKKARTPAQGGDETTYLNAFLDARKAAMLTEAAHDDTSRVDTEQRVFLKAGNLDLNPPLKWKTYGDPYVINS [K204R],"change of melting temperature, mutant - wild type (higher = more stable)",Sodium acetate 100 mM,-1 °C and -0.2 °C and -0.9 °C
